Columns and labels:
[1] = target: EGFRvIII on F98npEGFRvIII cells (rat glioma F98 transfected with nonphosphorylated EGFRvIII); assay: flow cytometry, antibodies added at 2 µg/ml, F98-npEGFRvIII cells
[2] = target: EGFR and EGFRvIII on GBM39 cells (patient derived xenograft glioblastoma line); assay: flow cytometry on GBM39 cells, antibody at 2 µg/ml
[3] = target: EGFR and EGFRvIII on GBM39 cells (patient derived xenograft glioblastoma line); assay: flow cytometry on GBM39 cells, antibody at 20 µg/ml
[4] = target: EGFR and EGFRvIII on GBM39 cells (patient derived xenograft glioblastoma line); assay: flow cytometry on GBM39 cells, antibody at 0.2 µg/ml
[5] = target: EGFR loop peptide, His-tagged (EGFRlp-HIS) (human); assay: BLI (Octet Red96), His-tagged antigen on Ni-NTA biosensors, antibody in solution, 30 C
[6] = target: EGFR loop peptide, His-tagged (EGFRlp-HIS) (human); assay: BLI (Octet Red96), His-tagged antigen on Ni-NTA biosensors, conjugate in solution, 30 C

B1: monoclonal antibody 11G3 (antibody, V domains shown)
VH: QVQLKQSGPSLVQPSQSLSITCTVSGFSLTNYGVHWVRQSPGKGLEWLGVMWRGGRTDYNAAFMSRLSITKDNSRSQVFFKMNSLQTDDAAIYYCAKNGPFGNFAGYWGQGTLVTVST
VL: DIVMSQSPSSLPVSVGEKVSLTCKSSRSLLDNQKHYLAWYQQKPGQSPKLLIYWASTRESGVPDRFTGSGSGTEFTLTISSVKAEDLAVYYCQQFYNYPYTFGGGTKLEIK
Median : PE-A [1]: 1080

B2: monoclonal antibody 40H3 (antibody, V domains shown)
VH: QVQLKQSGPGLVQPSQSLSITCTVSGFSLTNYGIHWLRQSPGKGLEWLGMMWRGGGTDYNAAFISRLTITKDTSKSQVFFRMNNLQTNDTAIYYCARKGVGMGLGYWGQGTSVTVSS
VL: DIQMTQSPASQSASLGESVTITCLASQTIGTWVAWYQQKPGRSPQLLIYGATNLADGVPSRFSGSGSGTKFSFKISSLQAEDFVSYYCQQLYSNPYTFGGGTKLEIK
median fluorescent intensity [2]: 10700
median fluorescent intensity [3]: 8600
median fluorescent intensity [4]: 9450
Kd [5]: 1.11 nM
koff [5]: 6.07e-05 s⁻¹
kon [5]: 54900 M⁻¹ s⁻¹

B3: 40H3 DM1 antibody drug conjugate (antibody, V domains shown)
VH: B2 VH
VL: B2 VL
Kd [6]: 0.442 nM
koff [6]: 8.95e-05 s⁻¹
kon [6]: 202000 M⁻¹ s⁻¹

B4: 40H3 MMAE antibody drug conjugate (antibody, V domains shown)
VH: B2 VH
VL: B2 VL
Kd [6]: 0.0846 nM
koff [6]: 2.24e-05 s⁻¹
kon [6]: 265000 M⁻¹ s⁻¹

— patent publication US20260193363A1
